For the assay, the target named is T1, His-AtNRT1.4 (Arabidopsis, UniProt Q9SZY4 1-577).
T1 sequence (looked up): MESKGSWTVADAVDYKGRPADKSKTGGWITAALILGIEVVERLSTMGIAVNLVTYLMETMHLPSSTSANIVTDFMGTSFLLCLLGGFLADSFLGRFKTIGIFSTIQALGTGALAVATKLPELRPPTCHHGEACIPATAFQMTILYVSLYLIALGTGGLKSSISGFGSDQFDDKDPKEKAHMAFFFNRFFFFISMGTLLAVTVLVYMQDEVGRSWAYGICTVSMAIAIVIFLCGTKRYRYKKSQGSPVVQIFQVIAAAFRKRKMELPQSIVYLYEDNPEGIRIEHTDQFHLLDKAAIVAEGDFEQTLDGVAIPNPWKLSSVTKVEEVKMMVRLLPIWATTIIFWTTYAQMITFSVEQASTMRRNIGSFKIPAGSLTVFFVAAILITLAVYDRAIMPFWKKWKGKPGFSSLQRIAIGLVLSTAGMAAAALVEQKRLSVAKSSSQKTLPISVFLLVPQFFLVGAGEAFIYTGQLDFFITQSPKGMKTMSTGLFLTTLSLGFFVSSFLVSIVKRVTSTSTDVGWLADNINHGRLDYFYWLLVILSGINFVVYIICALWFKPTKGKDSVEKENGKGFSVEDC
Description: pull-down.

B1: GST-AtGPA1 (natural protein, Arabidopsis, UniProt P18064 1-383, looked up)
chain: MGLLCSRSRHHTEDTDENTQAAEIERRIEQEAKAEKHIRKLLLLGAGESGKSTIFKQIKLLFQTGFDEGELKSYVPVIHANVYQTIKLLHDGTKEFAQNETDSAKYMLSSESIAIGEKLSEIGGRLDYPRLTKDIAEGIETLWKDPAIQETCARGNELQVPDCTKYLMENLKRLSDINYIPTKEDVLYARVRTTGVVEIQFSPVGENKKSGEVYRLFDVGGQRNERRKWIHLFEGVTAVIFCAAISEYDQTLFEDEQKNRMMETKELFDWVLKQPCFEKTSFMLFLNKFDIFEKKVLDVPLNVCEWFRDYQPVSSGKQEIEHAYEFVKKKFEELYYQNTAPDRVDRVFKIYRTTALDQKLVKKTFKLVDETLRRRNLLEAGLL
Turning to B1, the binding result was “binds”.
